Where a SMILES comes first, the peptide text is derived from it. Bridges are numbered along the chain shown (N, C = ends). Where no end group is shown, it is not given here. The star is where a group is joined. DOTA = O=C(O)CN1CCN(CC(=O)O)CCN(CC(=O)*)CCN(CC(=O)O)CC1; 125I = iodine-125 label on tyrosine, [125I]*
Columns and labels:
[1] = Small-animal PET imaging, HNO399 xenografts; design: species or system mice; details: Balb/c nude, mouse, in vivo, iv, total radioactivity; 60 min after injection; read-out: SUVmean in tumor
[2] = Small-animal PET imaging, HNO223 xenografts; design: species or system mice; details: Balb/c nude, mouse, in vivo, iv, total radioactivity; 60 min after injection; read-out: SUVmean in tumor
[3] = Small-animal PET imaging, HNO97 xenografts; details: Balb/c nude, mouse, in vivo, iv, total radioactivity
Description: All experiments were conducted in compliance with the German animal protection laws. Eight week old Balb c/c nude mice (Charles River Laboratories) were inoculated subcutaneously at the right shoulder with 5×10^6 HNO97 cells in BD MatriGel™ (BD Bioscience). Xenografts were grown to a tumor diameter of 10-15 mm. For small animal-PET imaging mice were anesthetized using isoflurane inhalation and injected via tail-vein with 50 MBq (2 nmol) of the ^68Ga-labeled DOTA-SFITGv6 peptide (see above) solution in 100 μL PBS. Images were recorded on an Inveon small-animal PET scanner (Siemens) using a 60 min emission scan in list mode and a 10 min transmission scan. Images were taken in 3-dimensional (3D) mode and reconstructed iteratively with a fully 3D algorithm from a 256×256 matrix for viewing transaxial, coronal, and sagittal slices of 0.9 mm thickness. Pixel size was 0.38×0.38×0.79 mm3 and transaxial resolution obtained was 0.9 mm. For blocking experiments 100 μL of a 1 mM aqueous solution of SFITGv6 was pre-administered intraperitoneally 30 min before injection of the radiolabeled peptide. Biodistribution studies were performed after administration of 100 μL of a 20 nM ^177Lu-DOTA-SFITGv6 solution (1 MBq) as an intravenous bolus injection into the tail vein of the mice. After different time points (30 min to 6 hours) three animals, respectively, were sacrificed. Peripheral blood, heart, lung, spleen, liver, kidneys, muscle, brain, intestine, and injection site (tail, after intravenous injection only) were collected and weighted. Tissue-associated radioactivity was measured in a gamma counter (Berthold LB951G) and expressed as percentage of the injected dose per gram tissue (% ID/g).
All animal experiments were conducted in compliance with the German animal protection laws. For in vivo small animal PET imaging and organ distribution studies eight-week old Balb/c nude mice (Charles River Laboratories) were inoculated subcutaneously at the right shoulder with a total of 5×10^6 tumor cells in MatriGel (BD Bioscience). Xenografts were grown until a tumor diameter of 10-15 mm was reached.
3-dimensional (3D) PET images of whole mice were captured by the Siemens Inveon PET scanner as described in Example 1. To assess the biodistribution 100 μL of a 20 nM solution (1 MBq) of ^177Lu-DOTA-SFLAP3 and ^177Lu-DOTA-SFITGv6 were administered as an intravenous bolus injection into the tail vein of mice. For each time point (30 min to 6 hours) we sacrificed a total of three animals, and subsequently collected peripheral blood, heart, lung, spleen, liver, kidneys, muscle, brain, and intestine. Tissues were weighed and respective radioactivity was measured by a gamma counter (LB951G, Berthold Technologies). Values were expressed as percentage of the injected dose radioactivity (MBq) per gram tissue (% ID/g).

HNSCC tumor = experiment: PET/CT scan of HNSCC tumor patient with SFLAP3; assay type: in vivo, human
Text: (§1) The emission data were corrected for randoms, scatter and decay. […] The quantitative assessment of tracer accumulation was done using a region of interest technique and using standardized uptake values (SUV).

[4] = PET/CT scan of HNSCC tumor patient with SFLAP3; assay type: in vivo, human; details: human, right cervical lesion, iv, 322 MBq, total radioactivity; read-out: SUVmax right cervical lesion
Text: as §1

[5] = test system: metastasized pancreatic cancer; experiment: PET/CT and scintigraphy of pancreatic cancer patient; assay type: in vivo, human; details: 1 and 3 hours after injection
Description: PET/CT scans of tumor patients and body scintigraphy were performed as described in Example 1.

Capan-2 xenografts = experiment: Small-animal PET imaging, Capan-2 xenografts; assay type: in vivo, mice; details: 25 MBq
Description: 6 to 8 week old Balb c/c nude mice (Charles River Lab.) were inoculated with 5*10^6 Capan-2 cells in 100 μl Opti-MEM medium. After 4 to 6 weeks the tumor has grown 10-15 mm in diameter. For small animal PET imaging 25 MBq of the ^68Ga-labeled peptide (2 nmol) was injected into the tail vein.

OV433 and OV429 = experiment: In vitro binding on ovarian cancer cell lines; assay type: cell-based, human; details: highest binding among tested ovarian cell lines
Description: (§2) For in vitro binding Studies, 4*10^5-6*10^5 cells were seeded in 6 well plates and cultivated for 24 to 48 hours. At the start of the experiment the medium was replaced with 1 ml serum free medium with a definite amount of radioactive labeled peptide per well. For normal binding assays the cells were incubated for 60 min at 37° C. and afterwards washed 3 times with PBS (pH 7.4). Cells were lysed with 2 times 0.5 ml of a 0.3 M NaOH +0.2% SDS lysis-buffer. Competition assays were performed with ^125I-labeled and unlabelled (10^−6 to 10^−11M) peptide and incubated at the same time for 60 min.

Capan-2 cells = experiment: In vitro binding, internalization and efflux on Capan-2 cells; assay type: cell-based, human; details: 60 min
Description: as §2
Cells were incubated for 10 to 240 min with ^177Lu-labelled peptide in internalization assays. After the washing steps, the cells were incubated with 1 ml glycine-HCl (1 M, pH 2.2) buffer for 10 min to remove surface bound peptide. Prior to the lyses the cells were washed again. Values are given as percentage of applied dose per 10^6 cells.
The efflux was tested with ^177Lu-labeled peptides. After 60 min incubation the radioactive medium was removed and 1 ml fresh serum-free medium was added. After additional incubation of 60, 120 or 240 min, cell bound activity was measured.

HNO399 cells = experiment: In vitro binding on HNO399 cells; assay type: cell-based, human; details: 60 min; percent applied dose/10^6 cells
Description: For the assessment of the peptide binding capacity in vitro, 2.5-4×10^5 cells were seeded into 6-well plates and cultivated for 48 h. ^125I-labeled peptide resuspended in 1 mL serum-free medium was added and incubated for either 10 min or 60 min with or without different concentrations of unlabeled peptide (10^−4-10^−11 M). Afterwards, cell monolayers were washed three times with 1 mL phosphate-buffered saline (pH 7.4) to remove unbound peptide and the cells were harvested with 1.4 mL lysis buffer (0.3 M NaOH). […] For the efflux experiments the cells were incubated with ^177Lu-DOTA-labeled peptides for 60 min. Thereafter, radioactive medium was replaced by non-radioactive medium and cell monolayers were incubated for additional 60, 120, and 240 min and afterwards lysed as described earlier. […] Unspecifically bound peptide was removed from the surface by incubation with 1 M glycine-HCl solution (pH 2.2) for 10 min. The monolayer cell was rinsed with PBS and cells were lysed as described before. Radioactivity was determined in a y-counter and calculated as percentage of the applied dose per 1×10^6 cells. Experiments were performed three times, and three repetitions per independent experiment were acquired.

carcinoma cell lines = experiment: In vitro binding of radiolabeled peptides to several carcinoma cell lines; assay type: cell-based, human; details: 10^−6 M competitor; all tested HNSCC cell lines
Description: For binding studies, 2.5×10^5 to 4×10^5 cells were seeded in 6-well plates and cultivated for 48 hours. Cells were incubated for 60 min with 1 mL serum-free medium containing the ^125I-labeled peptide (see above). For competition experiments, cells were simultaneously exposed to unlabeled (10^-4 M to 10^-10 M) and ^125I-labeled peptides. After three washing steps with PBS (pH 7.4) the cells were lysed with 0.5 mL of 0.3 M NaOH. Experiments concerning the internalization, kinetics and efflux were additionally performed with ^177Lu-DOTA-SFITGv6. To evaluate kinetics and efflux HNO97 cells were incubated for different time intervals (10 min to 480 min) and 60 min, respectively, with ^177Lu-DOTA-SFITGv6 and lysed as described. To continue with the efflux experiment radioactive medium was replaced by non-radioactive medium and cells were incubated again for 60 to 240 min before measuring radioactivity of the cell lysates and the medium. For internalization experiments the cells were exposed to ^177Lu-DOTA-SFITGv6 for different time intervals (10 to 240 min) at 37° C. and 4° C. After three washing steps with PBS the cells were incubated with 1 mL of glycine-HCl 50 mmol/L in PBS (pH 2.8) for 10 min at RT to remove the surface bound activity. Then, cells were washed with 3 mL of ice-cold PBS and lysed as described. Radioactivity was determined in a gamma counter and calculated as percentage of the applied dose per 1×10^6 cells. Experiments were performed three times, and three repetitions per independent experiment were acquired.
For the assessment of the peptide binding capacity in vitro, 2.5-4×10^5 cells were seeded into 6-well plates and cultivated for 48 h. ^125I-labeled peptide resuspended in 1 mL serum-free medium was added and incubated for either 10 min or 60 min with or without different concentrations of unlabeled peptide (10^−4-10^−11 M). Afterwards, cell monolayers were washed three times with 1 mL phosphate-buffered saline (pH 7.4) to remove unbound peptide and the cells were harvested with 1.4 mL lysis buffer (0.3 M NaOH). To evaluate kinetic properties the cells were exposed to ^177Lu-DOTA-labeled peptides for 10, 30, 60, 120, and 240 min, respectively, and lysed as described. For the efflux experiments the cells were incubated with ^177Lu-DOTA-labeled peptides for 60 min. Thereafter, radioactive medium was replaced by non-radioactive medium and cell monolayers were incubated for additional 60, 120, and 240 min and afterwards lysed as described earlier. The internalization was assessed after exposure of the cells to ^177Lu-DOTA-labeled peptides for 10, 30, 60, 120, and 240 min at 37° C. Unspecifically bound peptide was removed from the surface by incubation with 1 M glycine-HCl solution (pH 2.2) for 10 min. The monolayer cell was rinsed with PBS and cells were lysed as described before. Radioactivity was determined in a y-counter and calculated as percentage of the applied dose per 1×10^6 cells. Experiments were performed three times, and three repetitions per independent experiment were acquired.

CC(C)C[C@@H]1NC(=O)[C@H](CC(=O)O)NC(=O)CNC(=O)[C@H](CCCNC(=N)N)NC(=O)CNC(=O)[C@H]([C@@H](C)O)NC(=O)[C@@H](NC(=O)[C@H](CCCNC(=N)N)NC(=O)CNC(=O)CN2CCN(CC(=O)O)CCN(CC(=O)O)CCN(CC(=O)O)CC2)CSSC[C@@H](C(=O)N[C@@H](Cc2ccc(O)cc2)C(=O)N2CCC[C@H]2C(=O)N[C@@H](CC(=O)O)C(N)=O)NC(=O)[C@H](CC(C)C)NC(=O)[C@H](CCCNC(=N)N)NC(=O)CNC1=O [^68Ga-DOTA-SFLAP3, metal not drawn] ({DOTA}-GRCTGRGDLGRLCYPD-NH2; disulfide 3-13; N-terminus and C-terminus assumed)
SUV at 1 h [1]: 0.44 SUV | SUV at 1 h [2]: 0.32 SUV | SUV at 1 h [3]: 0.63 SUV | SUVmax Bight kidney (HNSCC tumor; 60 min): 22.43 | SUVmax Blood pool (mediast.) (HNSCC tumor; 60 min): 0.99 | SUVmax Cerebral parietal (HNSCC tumor; 60 min): 0.05 | SUVmax Colon ascendens (HNSCC tumor; 60 min): 9.2 | SUVmax Colon descendens (HNSCC tumor; 60 min): 3.75 | SUVmax Duodenum (HNSCC tumor; 60 min): 6.31 | SUVmax Hilar lymph nodes (HNSCC tumor; 60 min): 4.07 | SUVmax Ileum (HNSCC tumor; 60 min): 4.07 | SUVmax Jejunum (HNSCC tumor; 60 min): 10.46 | SUVmax Kidney (left) (HNSCC tumor; 60 min): 60.52 | SUVmax Liver (left) (HNSCC tumor; 60 min): 0.67 | SUVmax Liver (right) (HNSCC tumor; 60 min): 0.73 | SUVmax Lung (left) (HNSCC tumor; 60 min): 0.36 | SUVmax Lung (right) (HNSCC tumor; 60 min): 0.33 | SUVmax Muscle (glut.) (HNSCC tumor; 60 min): 1.94 | SUVmax Os ileum (HNSCC tumor; 60 min): 0.53 | SUVmax Pancreas head (HNSCC tumor; 60 min): 2.3 | SUVmax Plexus choroideus (HNSCC tumor; 60 min): 1.06 | SUVmax Spleen (HNSCC tumor; 60 min): 0.54 | SUVmax Stomach (HNSCC tumor; 60 min): 12.65 | SUVmax Thyroid (HNSCC tumor; 60 min): 3.27 | SUVmax Tumor (HNSCC tumor; 60 min, listed as 68Ga-DOTA labeled SFLAP3): 5.07 | SUVmax Tumor (HNSCC tumor; 60 min, listed as 68Ga-DOTA-labled SFLAP3): 5.1 | SUVmax Bight kidney (HNSCC tumor; 180 min): 26.41 | SUVmax Blood pool (mediast.) (HNSCC tumor; 180 min): 1.05 | SUVmax Cerebral parietal (HNSCC tumor; 180 min): 0.27 | SUVmax Colon ascendens (HNSCC tumor; 180 min): 19.37 | SUVmax Colon descendens (HNSCC tumor; 180 min): 2.97 | SUVmax Duodenum (HNSCC tumor; 180 min): 8.91 | SUVmax Hilar lymph nodes (HNSCC tumor; 180 min): 4.15 | SUVmax Ileum (HNSCC tumor; 180 min): 17.65 | SUVmax Jejunum (HNSCC tumor; 180 min): 9.2 | SUVmax Kidney (left) (HNSCC tumor; 180 min): 36.85 | SUVmax Liver (left) (HNSCC tumor; 180 min): 0.76 | SUVmax Liver (right) (HNSCC tumor; 180 min): 0.75 | SUVmax Lung (left) (HNSCC tumor; 180 min): 0.46 | SUVmax Lung (right) (HNSCC tumor; 180 min): 0.33 | SUVmax Muscle (glut.) (HNSCC tumor; 180 min): 1.92 | SUVmax Os ileum (HNSCC tumor; 180 min): 0.47 | SUVmax Pancreas head (HNSCC tumor; 180 min): 2.62 | SUVmax Plexus choroideus (HNSCC tumor; 180 min): 1.57 | SUVmax Spleen (HNSCC tumor; 180 min): 0.8 | SUVmax Thyroid (HNSCC tumor; 180 min): 3.24 | SUVmax Tumor (HNSCC tumor; 180 min): 4.64 | SUV [4]: 4.1 SUV | PET/CT accumulation in tumor lesions [5]: high accumulation over 3 hours into the tumor lesions | time p.i. at which tracer accumulation was seen in the tumor (Capan-2 xenografts): 20 min

^125I-SFLAP3: ^125I-labeled SFLAP3 (GRCTGRGDLGRLCY(125I)PD; disulfide 3-13)
binding of ^125I-SFLAP3 (OV433 and OV429): 5% | ^125I-SFLAP3 binding value (Capan-2 cells): 14% | binding of ^125I-labeled peptide (HNO399 cells): 10.1% | competition of binding by non-radioactively labeled counterpart (carcinoma cell lines): almost completely competed
